We go through 50 sequences from the supplement of paper PMC9112550, “Optimization of the antimicrobial peptide Bac7 by deep mutational scanning” (BMC Biology, 2022).

This data set has as its system Escherichia coli TOP10. In words: shrunken log2 fold change of peptide-encoding DNA abundance (4.5 h post-induction vs induction); higher = less antimicrobial activity (less host growth inhibition). The conditions noted are these: time post-induction: 4.5 h; library: site-saturation at positions 5, 18, 19, 20.
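Further: peptides expressed intracellularly from a pBAD plasmid library in pooled LB shake-flask culture, induced with 0.3% L-arabinose, DNA abundance read by NGS, three biological replicates, DESeq2 with apeglm shrinkage.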

For RRIRRRPPRLPRPRPRPNYDPRP, the “shrunken log2 fold change” value was -0.187.

With RRIRTRPPRLPRPRPRPALQPRP, the “shrunken log2 fold change” value is 0.278.

Consider RRIRFRPPRLPRPRPRPMNDPRP, for which the “shrunken log2 fold change” value is -0.122.

Take RRIRGRPPRLPRPRPRPAWTPRP: the “shrunken log2 fold change” value turned out to be 0.619.

As to RRIRQRPPRLPRPRPRPHAHPRP, the “shrunken log2 fold change” value is 0.000761.

With RRIRVRPPRLPRPRPRPAYPPRP, the “shrunken log2 fold change” value was -0.179.

Consider RRIRVRPPRLPRPRPRPLHGPRP, for which the “shrunken log2 fold change” value was found to be 0.0379.

For RRIRERPPRLPRPRPRPPSDPRP, the “shrunken log2 fold change” value stood at 0.0848.

Take RRIRCRPPRLPRPRPRPDKNPRP: the “shrunken log2 fold change” value was -0.369.

As for RRIRCRPPRLPRPRPRPIHHPRP, the “shrunken log2 fold change” value was -0.481.

With RRIRYRPPRLPRPRPRPIDNPRP, the “shrunken log2 fold change” value is -0.542.

As to RRIRLRPPRLPRPRPRPYNMPRP, the “shrunken log2 fold change” value is -0.859.

Take RRIRSRPPRLPRPRPRPTHVPRP: the “shrunken log2 fold change” value is -0.117.

Consider RRIRCRPPRLPRPRPRPTRLPRP, for which the “shrunken log2 fold change” value was found to be 0.558.

As for RRIRARPPRLPRPRPRPMFAPRP, the “shrunken log2 fold change” value turned out to be 0.52.

Take RRIRSRPPRLPRPRPRPYQNPRP: the “shrunken log2 fold change” value was -0.511.

On to RRIRKRPPRLPRPRPRPWAAPRP, for which the “shrunken log2 fold change” value is 0.473.

Turning to RRIRSRPPRLPRPRPRPARYPRP, the “shrunken log2 fold change” value is -0.0163.

As to RRIRFRPPRLPRPRPRPIEKPRP, the “shrunken log2 fold change” value was -0.0389.

On to RRIRVRPPRLPRPRPRPAREPRP, for which the “shrunken log2 fold change” value worked out at 0.254.

As for RRIRFRPPRLPRPRPRPTEFPRP, the “shrunken log2 fold change” value was -0.217.

As to RRIRDRPPRLPRPRPRPFRPPRP, the “shrunken log2 fold change” value amounted to 0.0778.

Regarding RRIRMRPPRLPRPRPRPQRGPRP, the “shrunken log2 fold change” value came out at 1.24.

As for RRIRWRPPRLPRPRPRPFSTPRP, the “shrunken log2 fold change” value is -0.14.

Consider RRIRPRPPRLPRPRPRPDLPPRP, for which the “shrunken log2 fold change” value turned out to be 0.315.

For RRIRYRPPRLPRPRPRPGQSPRP, the “shrunken log2 fold change” value is -0.108.

In the case of RRIRWRPPRLPRPRPRPLDEPRP, the “shrunken log2 fold change” value was found to be 0.53.

For the sequence RRIRQRPPRLPRPRPRPMVNPRP, the “shrunken log2 fold change” value is -0.2.

As to RRIRCRPPRLPRPRPRPWNTPRP, the “shrunken log2 fold change” value is -0.575.

With RRIRIRPPRLPRPRPRPRITPRP, the “shrunken log2 fold change” value is -0.354.

With RRIRQRPPRLPRPRPRPNINPRP, the “shrunken log2 fold change” value is -0.633.

As to RRIRARPPRLPRPRPRPHIRPRP, the “shrunken log2 fold change” value is -0.0962.

For the sequence RRIRWRPPRLPRPRPRPVIQPRP, the “shrunken log2 fold change” value is -0.2.

Consider RRIRTRPPRLPRPRPRPAYQPRP, for which the “shrunken log2 fold change” value is -0.0436.

On to RRIRRRPPRLPRPRPRPNSTPRP, for which the “shrunken log2 fold change” value is -0.0128.

On to RRIRQRPPRLPRPRPRPSSLPRP, for which the “shrunken log2 fold change” value is -0.728.

For the sequence RRIRNRPPRLPRPRPRPRIKPRP, the “shrunken log2 fold change” value amounted to 0.0822.

Regarding RRIRLRPPRLPRPRPRPYNGPRP, the “shrunken log2 fold change” value is -0.103.

In the case of RRIRFRPPRLPRPRPRPRGSPRP, the “shrunken log2 fold change” value stood at 0.432.

As to RRIRERPPRLPRPRPRPIREPRP, the “shrunken log2 fold change” value amounted to 0.0256.

Regarding RRIRMRPPRLPRPRPRPFAAPRP, the “shrunken log2 fold change” value was 0.789.

For RRIRFRPPRLPRPRPRPNITPRP, the “shrunken log2 fold change” value was -0.633.

On to RRIRVRPPRLPRPRPRPKRYPRP, for which the “shrunken log2 fold change” value is -0.078.

For RRIRIRPPRLPRPRPRPTYNPRP, the “shrunken log2 fold change” value was -0.783.

As to RRIRVRPPRLPRPRPRPDSAPRP, the “shrunken log2 fold change” value came out at 0.0792.

In the case of RRIRYRPPRLPRPRPRPHGLPRP, the “shrunken log2 fold change” value was 0.0126.

Consider RRIRFRPPRLPRPRPRPYKLPRP, for which the “shrunken log2 fold change” value was -0.438.

Turning to RRIRCRPPRLPRPRPRPGAQPRP, the “shrunken log2 fold change” value stood at 0.312.

In the case of RRIRDRPPRLPRPRPRPHVHPRP, the “shrunken log2 fold change” value is -0.134.

RRIRFRPPRLPRPRPRPVDQPRP: the “shrunken log2 fold change” value worked out at 0.0138.
